Experimental data taken from US20200262877A1, “ION CHANNEL-BINDING PEPTIDES AND METHODS OF USE THEREOF” (priority 2017, published 2020).

Key:
5HT3a = target: T1, 5HT3a (Homo sapiens, UniProt P46098); test: Ion channel panel (IonWorks Barracuda): 5HT3a; format: cell-based
T1 construct: host or cells: HEK293 or CHO
T1 sequence (P46098 whole entry, looked up): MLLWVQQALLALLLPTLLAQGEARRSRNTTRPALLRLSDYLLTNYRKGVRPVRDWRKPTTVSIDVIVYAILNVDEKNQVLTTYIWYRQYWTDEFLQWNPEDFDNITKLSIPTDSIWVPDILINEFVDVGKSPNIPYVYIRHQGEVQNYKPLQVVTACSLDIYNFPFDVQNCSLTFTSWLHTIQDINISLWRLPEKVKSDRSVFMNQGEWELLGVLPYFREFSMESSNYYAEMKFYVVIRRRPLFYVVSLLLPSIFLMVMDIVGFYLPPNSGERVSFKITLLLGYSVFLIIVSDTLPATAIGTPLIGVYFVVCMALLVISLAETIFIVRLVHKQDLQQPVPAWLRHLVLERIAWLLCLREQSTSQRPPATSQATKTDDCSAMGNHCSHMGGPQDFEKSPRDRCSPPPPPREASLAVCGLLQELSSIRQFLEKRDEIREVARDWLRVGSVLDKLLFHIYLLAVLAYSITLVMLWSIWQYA
Method in brief: (§1)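 Peptides were tested in duplicate at final 20 μM and 200 nM, with concentration set by amino acid analysis, in HEPES-buffered saline. They were applied for at least 5 min to HEK293 or CHO cells transfected with each channel. Currents were expressed as % inhibition, 1-(Ipeptide/Icontrol)×100, or % activation, Ipeptide/Icontrol×100, against a channel-matched reference compound.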

α3β4 = target: T2, α3β4 (Homo sapiens, UniProt P30926+P32297); test: Ion channel panel (IonWorks Barracuda): α3β4; format: cell-based; conditions: 100% = no change, <100% = inhibition
T2 construct: host or cells: HEK293 or CHO
Method in brief: as §1

α4β2 = target: T3, α4β2 (Homo sapiens, UniProt P17787+P43681); test: Ion channel panel (IonWorks Barracuda): α4β2; format: cell-based; conditions: 100% = no change, <100% = inhibition
T3 construct: host or cells: HEK293 or CHO
Method in brief: as §1

Cav2.1 = target: T4, Cav2.1 (Homo sapiens, UniProt O00555); test: cell-based; conditions: 100% = no change, <100% = inhibition
T4 construct: host or cells: HEK293 or CHO
Method in brief: as §1

Cav2.2 = target: T5, Cav2.2 (Homo sapiens, UniProt Q00975); test: cell-based; conditions: 100% = no change, <100% = inhibition
T5 construct: host or cells: HEK293 or CHO
Method in brief: as §1

Kv2.1 = target: T6, Kv2.1 (Homo sapiens, UniProt Q14721); test: cell-based; conditions: 100% = no change, <100% = inhibition
T6 construct: host or cells: HEK293 or CHO
Method in brief: as §1

GABA = test: Ion channel panel (IonWorks Barracuda): GABA; format: cell-based; conditions: 100% = no change, <100% = inhibition
Method in brief: as §1

Nav1.5 = Nav1.5 (Homo sapiens, UniProt Q14524); test: in vitro; conditions: 100% = no change; for Activity of Nav1.5 with peptide, expressed as a percentage of the reference compound: peptide at 0.2 μM; for Activity of Nav1.5 with peptide (percentage of the reference compound): peptide at 20 μM
Nav1.5, sequence (Q14524 whole entry): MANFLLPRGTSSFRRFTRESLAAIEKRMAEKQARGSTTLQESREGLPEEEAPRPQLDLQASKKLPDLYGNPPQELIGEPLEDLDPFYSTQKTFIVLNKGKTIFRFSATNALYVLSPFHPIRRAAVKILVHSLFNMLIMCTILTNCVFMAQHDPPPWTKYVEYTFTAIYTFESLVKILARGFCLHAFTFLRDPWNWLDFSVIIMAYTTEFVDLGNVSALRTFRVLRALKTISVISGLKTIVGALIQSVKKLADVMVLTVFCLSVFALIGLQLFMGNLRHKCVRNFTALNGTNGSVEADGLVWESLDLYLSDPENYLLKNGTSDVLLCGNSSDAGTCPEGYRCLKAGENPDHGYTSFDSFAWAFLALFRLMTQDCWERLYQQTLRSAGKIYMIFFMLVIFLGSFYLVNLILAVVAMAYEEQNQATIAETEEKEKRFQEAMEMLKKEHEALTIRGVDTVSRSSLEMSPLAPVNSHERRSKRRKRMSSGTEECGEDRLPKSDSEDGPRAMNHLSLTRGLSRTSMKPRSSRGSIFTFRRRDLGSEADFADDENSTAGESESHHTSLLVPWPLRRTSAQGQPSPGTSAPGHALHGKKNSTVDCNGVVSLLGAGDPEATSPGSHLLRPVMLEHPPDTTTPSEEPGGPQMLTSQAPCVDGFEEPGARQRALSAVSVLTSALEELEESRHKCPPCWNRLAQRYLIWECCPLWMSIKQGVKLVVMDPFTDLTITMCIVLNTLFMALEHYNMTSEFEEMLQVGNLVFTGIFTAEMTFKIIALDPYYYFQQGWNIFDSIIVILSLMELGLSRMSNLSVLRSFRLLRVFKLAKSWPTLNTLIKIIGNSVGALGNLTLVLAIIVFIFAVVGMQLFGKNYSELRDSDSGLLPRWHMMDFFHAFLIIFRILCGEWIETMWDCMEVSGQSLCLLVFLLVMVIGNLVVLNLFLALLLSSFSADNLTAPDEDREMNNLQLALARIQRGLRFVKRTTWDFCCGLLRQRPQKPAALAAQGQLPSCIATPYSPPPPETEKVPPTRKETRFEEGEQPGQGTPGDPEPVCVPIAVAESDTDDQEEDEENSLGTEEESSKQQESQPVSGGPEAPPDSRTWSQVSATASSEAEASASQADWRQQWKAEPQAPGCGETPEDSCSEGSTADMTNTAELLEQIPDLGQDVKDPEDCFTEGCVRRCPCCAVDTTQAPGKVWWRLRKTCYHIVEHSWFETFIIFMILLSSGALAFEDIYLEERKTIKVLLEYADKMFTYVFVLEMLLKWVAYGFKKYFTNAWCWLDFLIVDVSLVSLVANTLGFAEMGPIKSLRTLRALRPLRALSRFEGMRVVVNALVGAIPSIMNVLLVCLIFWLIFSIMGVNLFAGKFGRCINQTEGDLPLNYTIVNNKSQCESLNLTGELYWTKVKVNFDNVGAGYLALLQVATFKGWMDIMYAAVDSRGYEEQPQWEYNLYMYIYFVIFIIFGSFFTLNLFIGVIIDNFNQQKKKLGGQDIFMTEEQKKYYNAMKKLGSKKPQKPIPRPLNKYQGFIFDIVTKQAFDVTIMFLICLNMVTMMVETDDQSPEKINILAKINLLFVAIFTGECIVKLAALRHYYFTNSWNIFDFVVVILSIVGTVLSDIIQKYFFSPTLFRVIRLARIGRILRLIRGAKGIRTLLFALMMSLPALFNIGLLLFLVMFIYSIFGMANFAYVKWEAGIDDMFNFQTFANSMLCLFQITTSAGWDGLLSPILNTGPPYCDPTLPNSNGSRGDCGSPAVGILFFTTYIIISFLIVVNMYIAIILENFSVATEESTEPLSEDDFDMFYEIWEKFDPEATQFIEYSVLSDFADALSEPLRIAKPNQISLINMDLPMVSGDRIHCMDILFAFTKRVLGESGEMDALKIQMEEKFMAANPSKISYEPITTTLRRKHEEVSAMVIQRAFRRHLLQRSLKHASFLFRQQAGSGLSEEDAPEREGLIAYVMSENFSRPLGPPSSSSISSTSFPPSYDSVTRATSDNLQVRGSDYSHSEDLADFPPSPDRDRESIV
Method in brief: as §1

hERG = hERG (Homo sapiens, UniProt Q12809); test: in vitro; conditions: 100% = no change, <100% = inhibition
Method in brief: as §1

Kir2.1 = target: T7, Kir2.1 (Homo sapiens, UniProt P63252); test: Ion channel panel (IonWorks Barracuda): Kir2.1; format: cell-based; conditions: 100% = no change, <100% = inhibition
T7 construct: host or cells: HEK293 or CHO
T7 sequence (P63252 whole entry): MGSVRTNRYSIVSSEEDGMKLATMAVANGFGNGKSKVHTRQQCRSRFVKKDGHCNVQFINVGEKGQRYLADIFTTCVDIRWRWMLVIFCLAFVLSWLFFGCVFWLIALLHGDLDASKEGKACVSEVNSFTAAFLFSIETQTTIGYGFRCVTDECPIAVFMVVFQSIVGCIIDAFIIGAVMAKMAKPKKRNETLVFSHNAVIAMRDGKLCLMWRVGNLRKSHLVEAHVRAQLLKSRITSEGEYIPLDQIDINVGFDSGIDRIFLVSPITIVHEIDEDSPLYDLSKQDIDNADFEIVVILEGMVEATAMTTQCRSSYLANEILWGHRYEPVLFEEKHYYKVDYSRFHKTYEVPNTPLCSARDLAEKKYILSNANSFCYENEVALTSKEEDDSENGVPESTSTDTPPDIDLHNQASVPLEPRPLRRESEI
Method in brief: as §1

Kv1.1 = target: T8, Kv1.1 (Homo sapiens, UniProt Q09470); test: cell-based; format: cell-based; conditions: 100% = no change, <100% = inhibition
T8 construct: host or cells: HEK293 or CHO
Method in brief: as §1

Kv1.2 = target: T9, Kv1.2 (Homo sapiens, UniProt P16389); test: cell-based; format: cell-based; conditions: 100% = no change, <100% = inhibition
T9 construct: host or cells: HEK293 or CHO
T9 sequence (P16389 whole entry): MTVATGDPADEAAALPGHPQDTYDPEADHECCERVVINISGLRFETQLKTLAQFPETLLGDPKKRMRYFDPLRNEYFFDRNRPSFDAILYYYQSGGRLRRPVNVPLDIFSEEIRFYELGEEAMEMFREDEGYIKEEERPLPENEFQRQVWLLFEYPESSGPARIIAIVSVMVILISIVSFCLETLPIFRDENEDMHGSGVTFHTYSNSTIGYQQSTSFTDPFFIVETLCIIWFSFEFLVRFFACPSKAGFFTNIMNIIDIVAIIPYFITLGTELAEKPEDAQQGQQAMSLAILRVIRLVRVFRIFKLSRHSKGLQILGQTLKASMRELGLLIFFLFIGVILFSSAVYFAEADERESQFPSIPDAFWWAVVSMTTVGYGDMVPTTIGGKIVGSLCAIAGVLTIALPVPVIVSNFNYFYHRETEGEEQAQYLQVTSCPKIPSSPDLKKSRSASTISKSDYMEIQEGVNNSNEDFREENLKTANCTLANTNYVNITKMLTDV
Method in brief: as §1

Kv1.3 = target: T10, Kv1.3 (Homo sapiens, UniProt P22001); test: cell-based; format: cell-based; conditions: 100% = no change, <100% = inhibition
T10 construct: host or cells: HEK293 or CHO
Method in brief: as §1

Nav1.7 = target: T11, Nav1.7 (Homo sapiens, UniProt Q15858); test: cell-based; format: cell-based; conditions: 100% = no change; for Activity of Nav1.7 with peptide, expressed as a percentage of the reference compound: peptide at 0.2 μM; for Activity of Nav1.7 with peptide (percentage of the reference compound): peptide at 20 μM
T11 construct: host or cells: HEK293 or CHO
T11 sequence (Q15858 whole entry): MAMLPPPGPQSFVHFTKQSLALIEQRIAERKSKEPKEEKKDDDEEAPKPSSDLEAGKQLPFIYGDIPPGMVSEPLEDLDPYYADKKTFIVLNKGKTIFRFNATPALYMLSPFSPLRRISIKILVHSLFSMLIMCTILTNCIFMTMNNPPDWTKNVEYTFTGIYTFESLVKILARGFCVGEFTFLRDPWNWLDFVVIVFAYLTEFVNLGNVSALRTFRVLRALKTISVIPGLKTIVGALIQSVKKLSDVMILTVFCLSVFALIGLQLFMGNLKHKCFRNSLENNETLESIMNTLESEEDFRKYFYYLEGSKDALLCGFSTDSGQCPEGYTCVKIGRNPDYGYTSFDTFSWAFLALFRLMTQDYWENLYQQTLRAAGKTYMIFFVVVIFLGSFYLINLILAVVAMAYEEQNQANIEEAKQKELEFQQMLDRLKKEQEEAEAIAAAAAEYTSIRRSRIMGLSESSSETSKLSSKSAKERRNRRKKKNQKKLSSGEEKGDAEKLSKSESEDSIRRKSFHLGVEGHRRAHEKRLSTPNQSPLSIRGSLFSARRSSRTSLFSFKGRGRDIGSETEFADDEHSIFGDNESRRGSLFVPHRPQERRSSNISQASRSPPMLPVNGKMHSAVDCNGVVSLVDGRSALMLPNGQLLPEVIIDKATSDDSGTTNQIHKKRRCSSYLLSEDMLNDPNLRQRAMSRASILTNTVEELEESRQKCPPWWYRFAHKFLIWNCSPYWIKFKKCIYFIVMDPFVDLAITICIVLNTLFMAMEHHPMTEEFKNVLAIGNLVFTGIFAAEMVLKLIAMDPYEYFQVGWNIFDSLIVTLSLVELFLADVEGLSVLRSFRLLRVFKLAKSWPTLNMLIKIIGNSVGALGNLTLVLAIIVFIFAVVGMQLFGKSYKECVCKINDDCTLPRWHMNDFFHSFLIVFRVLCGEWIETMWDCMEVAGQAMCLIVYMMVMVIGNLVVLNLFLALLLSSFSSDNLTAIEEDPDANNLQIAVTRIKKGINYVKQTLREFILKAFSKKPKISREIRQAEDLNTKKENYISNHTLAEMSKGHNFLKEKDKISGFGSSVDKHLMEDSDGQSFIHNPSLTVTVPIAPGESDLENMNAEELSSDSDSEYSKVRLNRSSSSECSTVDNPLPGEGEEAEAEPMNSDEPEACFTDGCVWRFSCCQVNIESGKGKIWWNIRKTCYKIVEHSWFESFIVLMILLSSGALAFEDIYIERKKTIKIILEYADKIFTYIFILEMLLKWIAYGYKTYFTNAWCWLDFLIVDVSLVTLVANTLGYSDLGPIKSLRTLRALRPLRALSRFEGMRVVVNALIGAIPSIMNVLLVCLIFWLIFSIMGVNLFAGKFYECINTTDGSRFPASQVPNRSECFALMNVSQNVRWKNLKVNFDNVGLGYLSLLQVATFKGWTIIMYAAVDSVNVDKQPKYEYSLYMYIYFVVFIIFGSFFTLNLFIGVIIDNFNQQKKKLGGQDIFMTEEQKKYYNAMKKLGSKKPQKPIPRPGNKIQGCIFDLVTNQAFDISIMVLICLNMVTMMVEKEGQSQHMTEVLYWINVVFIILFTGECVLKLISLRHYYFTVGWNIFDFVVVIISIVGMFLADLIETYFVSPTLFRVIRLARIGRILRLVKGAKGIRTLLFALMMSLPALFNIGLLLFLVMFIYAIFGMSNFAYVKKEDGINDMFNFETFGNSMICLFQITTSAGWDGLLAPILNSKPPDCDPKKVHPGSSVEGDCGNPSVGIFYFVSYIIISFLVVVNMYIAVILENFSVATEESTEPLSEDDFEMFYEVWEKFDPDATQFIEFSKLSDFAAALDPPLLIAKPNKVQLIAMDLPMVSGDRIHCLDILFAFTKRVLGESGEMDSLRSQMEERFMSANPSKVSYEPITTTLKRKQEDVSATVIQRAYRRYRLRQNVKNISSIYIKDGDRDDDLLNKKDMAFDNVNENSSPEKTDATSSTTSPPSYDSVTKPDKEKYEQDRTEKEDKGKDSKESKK

NR2A = target: T12, NR2A (Homo sapiens, UniProt Q12879); test: Ion channel panel (IonWorks Barracuda): NR2A; format: cell-based; conditions: 100% = no change, <100% = inhibition
T12 construct: host or cells: HEK293 or CHO
Method in brief: as §1

NR2B = target: T13, NR2B (Homo sapiens, UniProt Q13224); test: Ion channel panel (IonWorks Barracuda): NR2B; format: cell-based; conditions: 100% = no change, <100% = inhibition
T13 construct: host or cells: HEK293 or CHO
Method in brief: as §1

TRPA1 = target: T14, TRPA1 (Homo sapiens, UniProt O75762); test: Ion channel panel (IonWorks Barracuda): TRPA1; format: cell-based; conditions: 100% = no change, <100% = inhibition
T14 construct: host or cells: HEK293 or CHO
Method in brief: as §1

TRPV1 = target: T15, TRPV1 (Homo sapiens, UniProt Q8NER1); test: Ion channel panel (IonWorks Barracuda): TRPV1; format: cell-based; conditions: 100% = no change, <100% = inhibition
T15 construct: host or cells: HEK293 or CHO
Method in brief: as §1

[1] = first of two Nav1.5 columns (probably TP1)
[2] = second of two Nav1.5 columns (probably TP2)
[3] = first of two Nav1.7 columns (probably TP1)
[4] = second of two Nav1.7 columns (probably TP2)

## 4 (GSSCAKPRENCNRMNILCCRGECVCPTFGDCFCYGD) [compound 4]
5HT3a
  Activity of 5HT3a with peptide (percentage of the reference compound): 76%
  Activity of 5HT3a with peptide, expressed as a percentage of the reference compound: 103%
α3β4; peptide at 0.2 μM
  Activity of a3b4 with peptide, expressed as a percentage of the reference compound: 107%
α3β4; peptide at 20 μM
  Activity of a3b4 with peptide (percentage of the reference compound): 97%
α4β2; peptide at 0.2 μM
  Activity of a4b2 with peptide, expressed as a percentage of the reference compound: 86%
α4β2; peptide at 20 μM
  Activity of a4b2 with peptide (percentage of the reference compound): 81%
Cav2.1; peptide at 0.2 μM
  Activity of Cav2.1 with peptide, expressed as a percentage of the reference compound: 111%
Cav2.1; peptide at 20 μM
  Activity of Cav2.1 with peptide (percentage of the reference compound): 130%
Cav2.2; peptide at 0.2 μM
  Activity of Cav2.2 with peptide, expressed as a percentage of the reference compound: 105%
Cav2.2; peptide at 20 μM
  Activity of Cav2.2 with peptide (percentage of the reference compound): 101%
Kv2.1; peptide at 0.2 μM
  Activity of Kv2.1 with peptide, expressed as a percentage of the reference compound: 112%
Kv2.1; peptide at 20 μM
  Activity of Kv2.1 with peptide (percentage of the reference compound): 102%
GABA; peptide at 0.2 μM
  Activity of GABA with peptide, expressed as a percentage of the reference compound: 121%
GABA; peptide at 20 μM
  Activity of GABA with peptide (percentage of the reference compound): 108%
Nav1.5; [1]
  Activity of Nav1.5 with peptide, expressed as a percentage of the reference compound: 117%
  Activity of Nav1.5 with peptide (percentage of the reference compound): 98%
Nav1.5; [2]
  Activity of Nav1.5 with peptide, expressed as a percentage of the reference compound: 118%
  Activity of Nav1.5 with peptide (percentage of the reference compound): 101%
hERG; peptide at 0.2 μM
  Activity of hERG with peptide, expressed as a percentage of the reference compound: 110%
hERG; peptide at 20 μM
  Activity of hERG with peptide (percentage of the reference compound): 80%
Kir2.1; peptide at 0.2 μM
  Activity of Kir2.1 with peptide, expressed as a percentage of the reference compound: 109%
Kir2.1; peptide at 20 μM
  Activity of Kir2.1 with peptide (percentage of the reference compound): 90%
Kv1.1; peptide at 0.2 μM
  Activity of Kv1.1 with peptide, expressed as a percentage of the reference compound: 106%
Kv1.1; peptide at 20 μM
  Activity of Kv1.1 with peptide (percentage of the reference compound): 91%
Kv1.2; peptide at 0.2 μM
  Activity of Kv1.2 with peptide, expressed as a percentage of the reference compound: 90%
Kv1.2; peptide at 20 μM
  Activity of Kv1.2 with peptide (percentage of the reference compound): 45%
Kv1.3; peptide at 0.2 μM
  Activity of Kv1.3 with peptide, expressed as a percentage of the reference compound: 109%
Kv1.3; peptide at 20 μM
  Activity of Kv1.3 with peptide (percentage of the reference compound): 87%
Nav1.7; [3]
  Activity of Nav1.7 with peptide, expressed as a percentage of the reference compound: 95%
  Activity of Nav1.7 with peptide (percentage of the reference compound): 96%
Nav1.7; [4]
  Activity of Nav1.7 with peptide, expressed as a percentage of the reference compound: 93%
  Activity of Nav1.7 with peptide (percentage of the reference compound): 104%
NR2A; peptide at 0.2 μM
  Activity of NR2A with peptide, expressed as a percentage of the reference compound: 106%
NR2A; peptide at 20 μM
  Activity of NR2A with peptide (percentage of the reference compound): 90%
NR2B; peptide at 0.2 μM
  Activity of NR2B with peptide, expressed as a percentage of the reference compound: 117%
NR2B; peptide at 20 μM
  Activity of NR2B with peptide (percentage of the reference compound): 93%
TRPA1; peptide at 0.2 μM
  Activity of TRPA1 with peptide, expressed as a percentage of the reference compound: 135%
TRPA1; peptide at 20 μM
  Activity of TRPA1 with peptide (percentage of the reference compound): 119%
TRPV1; peptide at 0.2 μM
  Activity of TRPV1 with peptide, expressed as a percentage of the reference compound: 110%
TRPV1; peptide at 20 μM
  Activity of TRPV1 with peptide (percentage of the reference compound): 98%
